# Literature values as cited in publication PMC3906610.
# Target: PagP (Escherichia coli) (UniProt P37001)
# Sequence of UniProt P37001 (P37001 26-186): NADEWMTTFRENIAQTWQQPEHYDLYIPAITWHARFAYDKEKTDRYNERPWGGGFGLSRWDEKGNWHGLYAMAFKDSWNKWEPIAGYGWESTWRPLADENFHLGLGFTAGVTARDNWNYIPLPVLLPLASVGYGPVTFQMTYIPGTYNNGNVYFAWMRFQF
substance,measurement,value
Skp (from UniProt P0AEU7),Kd,0.0118 µM
